The target of experiment [1] is T1, HLA-DR1 (DRB1*0101) (human).
T1 chain 1: not shown
T1 chain 2: not shown
The experiment in a line: inhibition of 125I-probe peptide binding to purified HLA-DR, gel filtration.

Experiment [2] has as its target T2, HLA-DR5w11 (DRB1*1101) (human).
T2 chain 1: not shown
T2 chain 2: not shown
The description is as above.

Experiment [3] has as its target T3, HLA-DR4w4 (DRB1*0401) (human).
T3 chain 1: not shown
T3 chain 2: not shown
Described as above.

In experiment [4] the target is T4, HLA-DR2w2β1 (DRB1*1501) (human).
T4 chain 1: not shown
T4 chain 2: not shown
The description is as above.

Experiment [5] addresses T5, HLA-DR4w15 (DRB1*0405) (human).
T5 chain 1: not shown
T5 chain 2: not shown
The description is as above.

Experiment [6] deals with T6, HLA-DR2w2β2 (DRB5*0101) (human).
T6 chain 1: not shown
T6 chain 2: not shown
The description is as above.

Experiment [7] addresses T7, HLA-DR3 (DRB1*0301) (human).
T7 chain 1: not shown
T7 chain 2: not shown
Described as above.

In experiment [8] the target is HLA-A*0201 (Human).
For experiment [9], the target named is HLA-A*1101 (Human). The experiment in a line: competition with 125I-labelled probe peptide for purified HLA-A*1101.
Experiment [10] concerns the target HLA-A*3301 (human). Put plainly: competition with 125I-labeled probe peptide for purified HLA, gel filtration. The note with it: scale: ratio. In general terms: Size exclusion chromatography separates by hydrodynamic size, large species first.
The target in experiment [11] is HLA-A*6801 (human). The description is as above. The note with it: scale: ratio.
In experiment [12] the target is HLA-A*1101 (human). The experiment is described as above. The note with it: scale: ratio.
Experiment [13] has as its target HLA-A*0301 (human). Described as above. The note with it: scale: ratio.
Experiment [14] concerns the target T1, HLA-DR1 (DRB1*0101) (human).
Experiment [15] deals with T2, HLA-DR5w11 (DRB1*1101) (human).
Experiment [16] has as its target T3, HLA-DR4w4 (DRB1*0401) (human).
In experiment [17] the target is T4, HLA-DR2w2β1 (DRB1*1501) (human).
The target of experiment [18] is T5, HLA-DR4w15 (DRB1*0405) (human).
The target of experiment [19] is T6, HLA-DR2w2β2 (DRB5*0101) (human).
The target in experiment [20] is T7, HLA-DR3 (DRB1*0301) (human).
Experiment [21] has as its target HLA-A*0201 (human). The experiment in a line: competition with 125I probe peptide for purified HLA, gel filtration.
The target of experiment [22] is T8, HLA-DR5w12 (DRB1*1201) (human).
T8 chain 1: not shown
T8 chain 2: not shown

The target in experiment [23] is T9, HLA-DR9 (DRB1*0901) (human).
T9 chain 1: not shown
T9 chain 2: not shown

Experiment [24] has as its target T10, HLA-DR6w19 (DRB1*1302) (human).
T10 chain 1: not shown
T10 chain 2: not shown

The target of experiment [25] is T11, HLA-DR7 (DRB1*0701) (human).
T11 chain 1: not shown
T11 chain 2: not shown

Experiment [26] has as its target HLA-B*0702 (Human).
For experiment [27], the target named is HLA-DR3 (DRB1*0301) (human). Put plainly: competition with 125I-labeled probe peptide on purified HLA-DR, gel filtration.
In experiment [28] the target is HLA-A*1101 (human).
The target in experiment [29] is HLA-A*2401 (as the column head of Table X prints it), purified HLA class I molecule (human). The experiment in a line: competition with 125I-labelled standard peptide for purified HLA, gel filtration.
The target in experiment [30] is HLA-A*3301 (human). The description is as above.
The target in experiment [31] is HLA-A*3101 (human). Described as above.
Experiment [32] has as its target HLA-A*6801 (human). The experiment is described as above.
The target of experiment [33] is HLA-A*1101 (human). The description is as above.
In experiment [34] the target is HLA-A*0301 (human). Described as above.
Experiment [35] addresses HLA-A*0203 (human). The experiment in a line: competition with 125I probe peptide for purified HLA, gel filtration.
Experiment [36] addresses HLA-A*0206 (human). The experiment is described as above.

Like-named read-outs stand apart in the source and are kept apart here.

For the molecule RHPFKIGSSDPADNA (modifications not checked), the binding affinity ratio (relative binding) (ratio to standard peptide) in experiment [1] was 0.0044; in experiment [2] it was 0.0056; in experiment [3], 0.47; in [4] it was -0.0004; in experiment [5] it was 0.0029; in experiment [6], -0.0005. Also, the binding affinity ratio (relative binding) (ratio to standard peptide) in experiment [7] is -0.0008.

As for EALFQEYQCYGSSSN (modifications not checked) [… (P. falciparum CSP 15-mer, core …), listing 1 of 2 here], the binding affinity ratio (relative binding) (ratio to standard peptide) in experiment [1] was 0.0001; in experiment [2], -0.0002; in experiment [3], 0.0053; in experiment [5], -0.0009; in experiment [6], -0.0005.

For the molecule KLATSVLAGL (modifications not checked) [… (EXP position 75, 10 amino acids)], the binding affinity ratio (IC50 of standard peptide / IC50 of test peptide) in experiment [8] is 0.0047.

For the molecule EDNEKLRKPK (modifications not checked) [… (Pf CSP 100, A11 motif peptide)], in [9], the binding affinity ratio (IC50 of standard peptide / IC50 of test peptide) worked out at 0.0002.

As to VSSKKKNKK (modifications not checked) [… (P. falciparum EXP, position 33, 9 amino acids)], the binding affinity ratio (relative to standard peptide) in [10] is 0.001; in experiment [11], 0.0002; in experiment [12], 0.0002; in [13], 0.0001.

On to VFFLALFFIIFNKES (modifications not checked), for which the binding affinity ratio (relative binding) (ratio to standard peptide) in experiment [14] is 0.0006; in experiment [15], -0.0005; in [16], 0.0047; in experiment [17], 0.018; in experiment [18], 0.01; in experiment [19], -0.0021. Further, the binding affinity ratio (relative binding) (ratio to standard peptide) in [20] was -0.0043.

A word on the IC50: it is the point on the concentration scale where inhibition reaches its midpoint. With GLIMVLSFL (modifications not checked) [1167.08], in [21], the concentration for half-maximal inhibition (IC50) came out at 22 nM.

EALFQEYQCYGSSSN (modifications not checked) [… (Pf CSP DR-supermotif 15-mer, core …), listing 2 of 2 here]: in experiment [22], the binding affinity ratio (relative to standard peptide) is 0.0001.

VFNVVNSSIGLIMVL (modifications not checked): the binding affinity ratio (relative to standard peptide) stood at 0.5 in [23], 0.26 in experiment [24], 0.0015 in [22] and 0.18 in experiment [25].

Take VPLAMKLI (modifications not checked) [VPLAMKLI (P. falciparum SSP2, position 69)]: in experiment [26], the binding affinity ratio (IC50 of standard peptide / IC50 of test peptide) amounted to 0.0001.

With FIIFNKESLAEKTNK (modifications not checked), the binding affinity ratio (IC50 standard peptide / IC50 test peptide) in experiment [27] was 0.004.

With GTGSGVSSKK (modifications not checked) [… (P. falciparum EXP-1, position 28)], in experiment [28], the binding affinity ratio (IC50 of standard peptide / IC50 of test peptide) is 0.034.

As to NPEDDREENF (modifications not checked) [… (P. falciparum SSP2, position 382)], in experiment [26], the binding affinity ratio (IC50 of standard peptide / IC50 of test peptide) amounted to 0.0001.

KYLVIVFLIF (modifications not checked) [… (Pf SSP2 position 8, 10-mer)]: in experiment [29], the binding affinity ratio (IC50 of standard peptide / IC50 of test peptide) was found to be 0.0003.

As for YADSAWENVK (modifications not checked), the binding affinity ratio (IC50 of standard peptide / IC50 of test peptide) in experiment [30] worked out at 0.0009; in experiment [31] it was 0.0009; in experiment [32], 0.0077; in experiment [33], 0.0002.

Consider ILSVFFLAL (modifications not checked) [… (EXP position 3, 9 amino acids)], for which, in [8], the binding affinity ratio (IC50 of standard peptide / IC50 of test peptide) turned out to be 0.0058.

With QSQDNNGNR (modifications not checked), the binding affinity ratio (IC50 of standard peptide / IC50 of test peptide) is 0.0093 in [30], 0.002 in experiment [31], 0.0002 in experiment [33] and 0.0005 in [34].

Consider FMKAVCVEV (modifications not checked) [1167.16], for which the half-maximal inhibitory concentration (IC50) in experiment [35] was found to be 2.9 nM; in experiment [21], 63 nM; in [36] it was 389 nM.

With NSSIGLIMVLSFLFL (modifications not checked), the binding affinity ratio (relative binding) (ratio to standard peptide) was 0.004 in [14]; -0.0005 in experiment [15]; 0.025 in experiment [17]; 0.0035 in experiment [18]; 0.0024 in [19].

For KILSVFFLA (modifications not checked) [1167.13], the IC50 in experiment [36] amounted to 8 nM.

For VEALFQEYQCYGSSS (modifications not checked), the binding affinity ratio (IC50 standard peptide / IC50 test peptide) in experiment [27] came out at 0.0082.

Regarding PYAGEPAPF (modifications not checked) [… (Pf SSP2 position 528, 9-mer)], the binding affinity ratio (IC50 of standard peptide / IC50 of test peptide) in experiment [29] came to 0.037.

With EALFQEYQCY (modifications not checked) [… (Pf CSP 17, A11 motif peptide)], the binding affinity ratio (IC50 of standard peptide / IC50 of test peptide) in experiment [9] turned out to be 0.0002.
